T1: RHPN1, Q8TCX5
T1 sequence (Q8TCX5 508-602, limits assumed, looked up): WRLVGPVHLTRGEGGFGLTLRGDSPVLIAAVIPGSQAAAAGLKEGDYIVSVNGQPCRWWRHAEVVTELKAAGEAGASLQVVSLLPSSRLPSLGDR

T2: SHANK1, Q9Y566
T2 sequence (Q9Y566 658-767, limits assumed, looked up): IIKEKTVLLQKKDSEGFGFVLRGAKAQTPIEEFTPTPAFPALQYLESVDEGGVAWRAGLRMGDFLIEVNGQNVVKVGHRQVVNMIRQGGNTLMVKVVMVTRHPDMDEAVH

T3: NHERF3_3, Q5T2W1
T3 sequence (Q5T2W1 238-333, limits assumed, looked up): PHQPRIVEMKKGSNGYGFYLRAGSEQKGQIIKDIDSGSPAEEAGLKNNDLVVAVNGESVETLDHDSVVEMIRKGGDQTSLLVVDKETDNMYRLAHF

T4: LNX2_3, Q8N448
T4 sequence (Q8N448 463-564, limits assumed, looked up): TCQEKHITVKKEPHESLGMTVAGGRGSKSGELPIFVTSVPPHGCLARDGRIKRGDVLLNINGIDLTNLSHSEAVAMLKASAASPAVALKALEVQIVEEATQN

T5: NHERF3_1, Q5T2W1
T5 sequence (Q5T2W1 4-100, limits assumed, looked up): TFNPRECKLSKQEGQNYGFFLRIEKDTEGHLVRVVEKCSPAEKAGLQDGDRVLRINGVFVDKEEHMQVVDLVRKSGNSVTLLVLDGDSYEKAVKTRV

T6: TJP3_3, O95049
T6 sequence (O95049 375-456, limits assumed, looked up): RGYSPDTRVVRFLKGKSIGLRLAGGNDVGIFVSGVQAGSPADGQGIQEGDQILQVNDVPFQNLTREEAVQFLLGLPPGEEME

T7: APBA3_1, O96018
T7 sequence (O96018 389-490, limits assumed, looked up): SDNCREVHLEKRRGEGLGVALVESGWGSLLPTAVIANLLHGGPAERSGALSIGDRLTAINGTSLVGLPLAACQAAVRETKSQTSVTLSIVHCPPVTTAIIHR

T8: DLG3_3, Q92796
T8 sequence (Q92796 374-475, limits assumed, looked up): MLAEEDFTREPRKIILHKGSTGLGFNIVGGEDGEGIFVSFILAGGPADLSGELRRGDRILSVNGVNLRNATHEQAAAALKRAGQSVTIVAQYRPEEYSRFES

T9: LRRC7, Q96NW7
T9 sequence (Q96NW7 1440-1537, limits assumed, looked up): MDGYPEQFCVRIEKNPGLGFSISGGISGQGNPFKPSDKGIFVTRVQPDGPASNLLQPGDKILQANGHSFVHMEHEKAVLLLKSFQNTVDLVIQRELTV

T10: PDZD7_3, Q9H5P4
T10 sequence (Q9H5P4 857-944, limits assumed, looked up): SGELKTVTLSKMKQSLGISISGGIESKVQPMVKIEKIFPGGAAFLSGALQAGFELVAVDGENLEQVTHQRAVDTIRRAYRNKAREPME

T11: APBA1_2, Q02410
T11 sequence (Q02410 742-832, limits assumed, looked up): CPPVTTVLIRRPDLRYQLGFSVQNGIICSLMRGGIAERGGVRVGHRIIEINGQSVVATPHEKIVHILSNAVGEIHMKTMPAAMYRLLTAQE


Columns and labels:
Assay in all cases: holdup assay
Design in all cases: key: below the threshold = too weak to quantify, mostly under pKd 3.1 to 4
Details in all cases: plain residues with an end cap or a label only (N-terminal biotin on a linker: ttds)
[1] = target: LAP2, Q96RT1
[2] = target: T1, RHPN1, Q8TCX5
[3] = target: T2, SHANK1, Q9Y566
[4] = target: TJP2_1, Q9UDY2
[5] = target: LIMK2, P53671
[6] = target: FRMPD2_3, Q68DX3
[7] = target: T3, NHERF3_3, Q5T2W1
[8] = target: NHERF4_2, Q86UT5
[9] = target: T4, LNX2_3, Q8N448
[10] = target: T5, NHERF3_1, Q5T2W1
[11] = target: T6, TJP3_3, O95049
[12] = target: GRIP2_6, Q9C0E4
[13] = target: T7, APBA3_1, O96018
[14] = target: Inadl_8, Q8NI35
[15] = target: T8, DLG3_3, Q92796
[16] = target: T9, LRRC7, Q96NW7
[17] = target: DLG1_3, Q12959
[18] = target: DLG4_1, P78352
[19] = target: T10, PDZD7_3, Q9H5P4
[20] = target: CASK, O14936
[21] = target: Inadl_4, Q8NI35
[22] = target: NHERF2_2, Q15599
[23] = target: GRIP2_3, Q9C0E4
[24] = target: LNX1_1, Q8TBB1
[25] = target: GOPC, Q9HD26
[26] = target: T11, APBA1_2, Q02410
[27] = target: FRMPD3, Q5JV73
Sequence of FRMPD3, Q5JV73 (Q5JV73 12-100): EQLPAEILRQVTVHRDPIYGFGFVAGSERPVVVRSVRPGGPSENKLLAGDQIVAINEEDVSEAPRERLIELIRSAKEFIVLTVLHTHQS

Sequence of Inadl_4, Q8NI35 (Q8NI35 547-651): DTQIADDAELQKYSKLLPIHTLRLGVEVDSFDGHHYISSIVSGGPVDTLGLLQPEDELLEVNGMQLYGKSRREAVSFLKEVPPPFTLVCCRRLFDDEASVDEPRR
Sequence of LAP2, Q96RT1 (Q96RT1 other isoform, or with tags, fused parts or gaps): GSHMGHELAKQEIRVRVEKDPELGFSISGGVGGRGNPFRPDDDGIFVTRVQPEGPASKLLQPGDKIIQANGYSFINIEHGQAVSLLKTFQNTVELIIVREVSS
Sequence of FRMPD2_3, Q68DX3 (Q68DX3 1073-1166): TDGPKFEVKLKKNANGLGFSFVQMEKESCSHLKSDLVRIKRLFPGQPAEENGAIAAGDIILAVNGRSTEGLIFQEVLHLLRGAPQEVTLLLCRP
Sequence of DLG1_3, Q12959 (Q12959 457-571): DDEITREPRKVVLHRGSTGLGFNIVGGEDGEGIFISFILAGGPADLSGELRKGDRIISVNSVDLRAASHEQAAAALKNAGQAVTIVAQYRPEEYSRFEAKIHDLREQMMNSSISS
Sequence of DLG4_1, P78352 (P78352 62-152): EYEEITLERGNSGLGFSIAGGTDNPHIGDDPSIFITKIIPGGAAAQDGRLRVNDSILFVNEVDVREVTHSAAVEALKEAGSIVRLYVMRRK
Sequence of Inadl_8, Q8NI35 (Q8NI35 1425-1530): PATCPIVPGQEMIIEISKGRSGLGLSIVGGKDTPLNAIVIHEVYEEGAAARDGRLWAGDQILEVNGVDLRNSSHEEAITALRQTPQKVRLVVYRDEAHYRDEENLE
Sequence of CASK, O14936 (O14936 487-570): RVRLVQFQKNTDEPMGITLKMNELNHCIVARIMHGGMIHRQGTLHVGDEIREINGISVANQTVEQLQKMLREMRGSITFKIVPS
Sequence of GRIP2_6, Q9C0E4 (Q9C0E4 648-740): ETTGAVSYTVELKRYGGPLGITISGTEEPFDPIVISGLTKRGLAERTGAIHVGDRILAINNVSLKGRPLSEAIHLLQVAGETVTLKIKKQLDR
Sequence of TJP2_1, Q9UDY2 (Q9UDY2 24-128): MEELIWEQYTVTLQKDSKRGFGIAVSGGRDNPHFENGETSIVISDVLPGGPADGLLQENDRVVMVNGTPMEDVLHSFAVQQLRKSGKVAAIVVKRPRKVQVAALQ
Sequence of LIMK2, P53671 (P53671 143-248): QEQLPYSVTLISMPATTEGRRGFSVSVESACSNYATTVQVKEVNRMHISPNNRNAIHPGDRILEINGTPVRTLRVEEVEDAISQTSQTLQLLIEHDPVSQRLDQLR
Sequence of LNX1_1, Q8TBB1 (Q8TBB1 261-371): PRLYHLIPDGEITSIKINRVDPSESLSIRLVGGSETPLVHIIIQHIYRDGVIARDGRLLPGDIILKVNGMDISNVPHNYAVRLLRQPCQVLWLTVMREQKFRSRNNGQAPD
Sequence of NHERF2_2, Q15599 (Q15599 142-238): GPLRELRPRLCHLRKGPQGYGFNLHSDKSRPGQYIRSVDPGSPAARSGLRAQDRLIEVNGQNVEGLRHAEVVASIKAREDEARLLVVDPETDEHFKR
Sequence of NHERF4_2, Q86UT5 (Q86UT5 220-308): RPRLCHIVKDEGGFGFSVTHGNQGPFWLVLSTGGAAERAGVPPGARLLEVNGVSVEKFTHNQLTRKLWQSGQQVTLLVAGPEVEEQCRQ
Sequence of GRIP2_3, Q9C0E4 (Q9C0E4 238-339): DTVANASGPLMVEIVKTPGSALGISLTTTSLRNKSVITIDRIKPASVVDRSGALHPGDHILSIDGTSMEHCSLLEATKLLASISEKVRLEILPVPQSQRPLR

Binder	pKd [1]	pKd [2]	pKd [3]	pKd [4]	pKd [5]	pKd [6]	pKd [7]	pKd [8]	pKd [9]	pKd [10]	pKd [11]	pKd [12]	pKd [13]	pKd [14]	pKd [15]	pKd [16]	pKd [17]	pKd [18]	pKd [19]	pKd [20]	other results
GGPKEEESPV [SLC16A1, P53985]	below the threshold	below the threshold	below the threshold	below the threshold	below the threshold	below the threshold	below the threshold	below the threshold	below the threshold	3.63	below the threshold	below the threshold	below the threshold	below the threshold	below the threshold	below the threshold	below the threshold	below the threshold	below the threshold	below the threshold	pKd [21]: below the threshold; pKd [22]: below the threshold; pKd [23]: below the threshold; pKd [24]: below the threshold; pKd [25]: below the threshold; pKd [26]: below the threshold; pKd [27]: below the threshold
DPRNTQTSQI [ABRAXAS2, Q15018]	3.53	4.43	below the threshold	below the threshold	below the threshold	3.54	below the threshold	below the threshold	below the threshold	3.91	below the threshold	below the threshold	below the threshold	3.54	3.66	below the threshold	3.52	3.65	4.31	3.55	pKd [21]: below the threshold; pKd [22]: 3.6; pKd [23]: 3.6; pKd [24]: below the threshold; pKd [25]: 4.13; pKd [26]: 3.71; pKd [27]: below the threshold
RTRQRNETQV [HPV51-E6, P26554]	3.69	3.7	below the threshold	below the threshold	below the threshold	below the threshold	below the threshold	below the threshold	below the threshold	4.17	below the threshold	below the threshold	below the threshold	below the threshold	4.91	below the threshold	4.54	4.9	3.88	below the threshold	pKd [21]: below the threshold; pKd [22]: below the threshold; pKd [23]: below the threshold; pKd [24]: below the threshold; pKd [25]: 3.72; pKd [26]: 3.56; pKd [27]: below the threshold
